According to patent publication EP1137792B9:

What was measured:
Test in all cases: cell-based or functional assay
[1] = biological target: murine LFA-3 (murine CD48) (murine) (UniProt P18181)
[2] = biological target: murine Intercellular adhesion molecule-1 (ICAM-1; CD54) (murine) (UniProt P13597)
[3] = biological target: murine B7-1 (CD80) (murine) (UniProt Q00609)
UniProt Q00609, sequence (Q00609 38-306): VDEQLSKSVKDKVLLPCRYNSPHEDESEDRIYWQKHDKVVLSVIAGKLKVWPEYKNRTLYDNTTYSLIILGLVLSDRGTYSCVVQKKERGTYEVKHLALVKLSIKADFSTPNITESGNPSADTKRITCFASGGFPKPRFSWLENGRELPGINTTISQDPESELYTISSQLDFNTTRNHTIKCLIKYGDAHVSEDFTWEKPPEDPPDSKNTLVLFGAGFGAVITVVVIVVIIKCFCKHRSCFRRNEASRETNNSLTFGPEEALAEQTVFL

UniProt P18181, sequence (P18181 23-217): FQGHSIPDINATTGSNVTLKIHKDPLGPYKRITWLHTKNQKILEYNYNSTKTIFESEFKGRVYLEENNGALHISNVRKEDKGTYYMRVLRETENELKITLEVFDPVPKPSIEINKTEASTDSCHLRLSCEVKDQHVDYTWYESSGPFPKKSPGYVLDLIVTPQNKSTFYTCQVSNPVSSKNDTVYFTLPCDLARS
UniProt P13597, sequence (P13597 28-537): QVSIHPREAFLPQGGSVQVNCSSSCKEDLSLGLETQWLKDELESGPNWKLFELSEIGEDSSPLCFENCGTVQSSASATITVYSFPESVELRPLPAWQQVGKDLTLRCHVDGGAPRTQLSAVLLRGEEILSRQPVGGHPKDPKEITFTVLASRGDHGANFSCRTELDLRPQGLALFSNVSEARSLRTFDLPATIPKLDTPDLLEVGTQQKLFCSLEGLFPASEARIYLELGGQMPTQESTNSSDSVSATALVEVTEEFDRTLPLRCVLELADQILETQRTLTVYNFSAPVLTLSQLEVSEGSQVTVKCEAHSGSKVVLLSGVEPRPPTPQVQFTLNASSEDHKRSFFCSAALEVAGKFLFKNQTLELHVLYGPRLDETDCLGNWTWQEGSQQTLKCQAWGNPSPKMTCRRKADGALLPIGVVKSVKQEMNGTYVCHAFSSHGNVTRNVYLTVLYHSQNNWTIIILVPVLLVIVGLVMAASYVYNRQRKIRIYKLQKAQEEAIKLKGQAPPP

Substance: Hamster anti-murine CD48 (BCM-1; clone HM48-1) (antibody)
- reduction of the increased T-cell proliferation supported by MC38/LFA-3 stimulator cells with Con A [1]: 98%

Substance: Hamster anti-murine CD54 (ICAM-1; clone 3E2) (antibody)
- reduction of the increased T-cell proliferation supported by MC38/ICAM-1 stimulator cells with Con A [2]: 88%

Substance: Hamster anti-murine CD80 (B7-1; clone 16-10A1) (antibody)
- inhibition of the increased T-cell proliferation supported by MC38/B7-1 stimulator cells with Con A [3]: 83%
